The target in this test is Protein A (on chromatography support) (UniProt P38507). Put plainly: Protein A column, linear pH gradient.

For the substance “IgG1 heterodimer with two IgG1 heavy chains identical but for an H435R/Y436F dipeptide modification in one CH3 domain (from UniProt P01857 1-330) (antibody)”, the elution pH from Protein A column was 3.9 pH. In turn, “IgG1 homodimer (unmodified CH3) (antibody)” came in with an elution pH from Protein A column of 3.7 pH.

The values are drawn from patent US20190031713A1.
